± gives the standard deviation of the averaged measurements.
Columns and labels:
MCF7 = experiment: percentage of EdU-negative (G0-arrested) nuclei per well, 72 h; higher = more G0 arrest; conditions: reference: sequence is the full UniProt precursor, the tested protein was the secreted form or ectodomain
hTERT-HMEC = experiment: as above; conditions: reference: sequence is the full UniProt precursor, the tested protein was the secreted form or ectodomain
[1] = protein concentration 0.0257143 µM
[2] = protein concentration 0.257143 µM
[3] = protein concentration 0.01925 µM
[4] = protein concentration 0.1925 µM
[5] = protein concentration 0.0225 µM
[6] = protein concentration 0.03125 µM
[7] = protein concentration 0.3125 µM
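Also: secreted proteins added to cultured cells, EdU pulse at the end, nuclei found by Hoechst imaging, EdU status from nuclear versus surrounding ring intensity ratio, PBS as neutral control.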

Sequence: MAKDFQDIQQLSSEENDHPFHQGEGPGTRRLNPRRGNPFLKGPPPAQPLAQRLCSMVCFSLLALSFNILLLVVICVTGSQSEGHGGAQLQAELRSLKEAFSNFSSSTLTEVQAISTHGGSVGDKITSLGAKLEKQQQDLKADHDALLFHLKHFPVDLRFVACQMELLHSNGSQRTCCPVNWVEHQGSCYWFSHSGKAWAEAEKYCQLENAHLVVINSWEEQKFIVQHTNPFNTWIGLTDSDGSWKWVDGTDYRHNYKNWAVTQPDNWHGHELGGSEDCVEVQPDGRWNDDFCLQVYRWVCEKRRNATGEVA
- percentage of EdU-negative (MCF7; [1]): 27 ± 1.8%
- percentage of EdU-negative (MCF7; [2]): 25.3 ± 2.7%
- percentage of EdU-negative (hTERT-HMEC; [1]): 4.62 ± 0.061%
- percentage of EdU-negative (hTERT-HMEC; [2]): 5.93 ± 0.22%

Sequence: MAKGFYISKSLGILGILLGVAAVCTIIALSVVYSQEKNKNANSSPVASTTPSASATTNPASATTLDQSKAWNRYRLPNTLKPDSYRVTLRPYLTPNDRGLYVFKGSSTVRFTCKEATDVIIIHSKKLNYTLSQGHRVVLRGVGGSQPPDIDKTELVEPTEYLVVHLKGSLVKDSQYEMDSEFEGELADDLAGFYRSEYMEGNVRKVVATTQMQAADARKSFPCFDEPAMKAEFNITLIHPKDLTALSNMLPKGPSTPLPEDPNWNVTEFHTTPKMSTYLLAFIVSEFDYVEKQASNGVLIRIWARPSAIAAGHGDYALNVTGPILNFFAGHYDTPYPLPKSDQIGLPDFNAGAMENWGLVTYRENSLLFDPLSSSSSNKERVVTVIAHELAHQWFGNLVTIEWWNDLWLNEGFASYVEYLGADYAEPTWNLKDLMVLNDVYRVMAVDALASSHPLSTPASEINTPAQISELFDAISYSKGASVLRMLSSFLSEDVFKQGLASYLHTFAYQNTIYLNLWDHLQEAVNNRSIQLPTTVRDIMNRWTLQMGFPVITVDTSTGTLSQEHFLLDPDSNVTRPSEFNYVWIVPITSIRDGRQQQDYWLIDVRAQNDLFSTSGNEWVLLNLNVTGYYRVNYDEENWRKIQTQLQRDHSAIPVINRAQIINDAFNLASAHKVPVTLALNNTLFLIEERQYMPWEAALSSLSYFKLMFDRSEVYGPMKNYLKKQVTPLFIHFRNNTNNWREIPENLMDQYSEVNAISTACSNGVPECEEMVSGLFKQWMENPNNNPIHPNLRSTVYCNAIAQGGEEEWDFAWEQFRNATLVNEADKLRAALACSKELWILNRYLSYTLNPDLIRKQDATSTIISITNNVIGQGLVWDFVQSNWKKLFNDYGGGSFSFSNLIQAVTRRFSTEYELQQLEQFKKDNEETGFGSGTRALEQALEKTKANIKWVKENKEVVLQWFTENSK
- percentage of EdU-negative (MCF7; [3]): 21.5 ± 1.1%
- percentage of EdU-negative (MCF7; [4]): 23.6 ± 1.2%
- percentage of EdU-negative (hTERT-HMEC; [3]): 5.56 ± 1.4%
- percentage of EdU-negative (hTERT-HMEC; [4]): 7.09 ± 0.27%

Sequence: MAKMNLSSYILILTFSLFSQGILLSASKSIRNLDDDMVFNTFRLGKGFQKEDTAEKSVIAPSLEQYKNDESSFMNEEENKVSKNTGSKHNFLNHGLPLNLAIKPYLALKGSVAFPAENGVQNTESTQEKREIGDEENSAKFPIGRRDFDMLRCMLGRVYRPCWQV
- percentage of EdU-negative (MCF7; [5]): 26 ± 2.4%
- percentage of EdU-negative (MCF7; protein concentration 0.225 µM): 26 ± 1.2%
- percentage of EdU-negative (hTERT-HMEC; [5]): 5.49 ± 0.6%
- percentage of EdU-negative (hTERT-HMEC; protein concentration 0.225 µM): 5.82 ± 0.072%

Sequence: MAKSFPVFSLLSFILIHLVLSSVSGPRHWWPPRGIIKVKCPYEKVNLSWYNGTVNPCPGLYQPICGTNFITYDNPCILCVESLKSHGRIRFYHDGKC [Q6IE38]
- percentage of EdU-negative (MCF7; [5]): 24 ± 0.13%
- percentage of EdU-negative (MCF7; protein concentration 0.225 µM): 27 ± 1.2%
- percentage of EdU-negative (hTERT-HMEC; [5]): 6.19 ± 0.33%
- percentage of EdU-negative (hTERT-HMEC; protein concentration 0.225 µM): 6.12 ± 0.94%

Sequence: MAKVFSFILVTTALTMGREISALEDCAQEQMRLRAQVRLLETRVKQQQVKIKQLLQENEVQFLDKGDENTVIDLGSKRQYADCSEIFNDGYKLSGFYKIKPLQSPAEFSVYCDMSDGGGWTVIQRRSDGSENFNRGWKDYENGFGNFVQKHGEYWLGNKNLHFLTTQEDYTLKIDLADFEKNSRYAQYKNFKVGDEKNFYELNIGEYSGTAGDSLAGNFHPEVQWWASHQRMKFSTWDRDHDNYEGNCAEEDQSGWWFNRCHSANLNGVYYSGPYTAKTDNGIVWYTWHGWWYSLKSVVMKIRPNDFIPNVI
- percentage of EdU-negative (MCF7; [6]): 24.5 ± 4.1%
- percentage of EdU-negative (MCF7; [7]): 22.8 ± 2.3%
- percentage of EdU-negative (hTERT-HMEC; [6]): 6.18 ± 1.3%
- percentage of EdU-negative (hTERT-HMEC; [7]): 5.22 ± 0.14%

Source: the supplement of paper PMC11316812
